Experimental data reported in article PMC11040377.

Biological target: Lag3 (lymphocyte-activation gene 3), on transfected SH-SY5Y cells (not stated (human or mouse cDNA cloned)) (UniProt Q61790)
Experiment: cell surface binding assay (streptavidin-alkaline phosphatase staining); SH-SY5Y cells transfected with Lag3 or its deletion mutants; biotin-labelled ligand at different concentrations (monomer equivalent) in DMEM with 10% FBS, 2 h at RT; washed, fixed, bound biotin detected with streptavidin-AP and BCIP/NBT; intensity by ImageJ, KD by GraphPad Prism

Chain of Lag3 (lymphocyte-activation gene 3), on transfected SH-SY5Y cells (not stated (human or mouse cDNA cloned)) (Q61790 24-521): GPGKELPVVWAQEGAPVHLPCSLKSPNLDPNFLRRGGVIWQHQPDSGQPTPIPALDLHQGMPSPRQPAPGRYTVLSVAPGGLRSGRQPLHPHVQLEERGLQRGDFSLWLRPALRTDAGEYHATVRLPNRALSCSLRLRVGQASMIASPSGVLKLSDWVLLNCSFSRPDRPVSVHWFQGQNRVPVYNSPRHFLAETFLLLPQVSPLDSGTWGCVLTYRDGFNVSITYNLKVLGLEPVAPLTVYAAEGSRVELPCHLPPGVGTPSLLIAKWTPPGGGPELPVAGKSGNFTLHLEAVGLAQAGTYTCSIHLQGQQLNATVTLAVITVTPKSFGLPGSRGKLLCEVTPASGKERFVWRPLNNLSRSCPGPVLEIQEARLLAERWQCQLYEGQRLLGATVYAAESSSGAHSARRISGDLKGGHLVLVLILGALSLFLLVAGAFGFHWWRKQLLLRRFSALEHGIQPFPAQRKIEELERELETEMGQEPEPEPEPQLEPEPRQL

Tau PFF derived from PSP (progressive supranuclear palsy) seeds
Kd: 0.227 µM
